The results in this text go back to publication doi:10.1101/2021.01.20.427433.

This test concerns the target 6xHis-XRCC4^1-164 (C-to-A), wildtype for the SIMs (human) (UniProt Q13426). In words: SPR.

In turn, “polySUMO2 chains (enzymatically linked via the internal K11) (from UniProt P61956 1-95)” returned a fold increase in KD against full-length XRCC4 of 3 fold.
